Target: HdaB-dsA (donor strand complemented HdaB: HdaB residues 1-119, 14-residue linker, HdaA residues 1-10) (Escherichia coli (enteroaggregative, EAEC))
Assay: SEC; Superdex-75 gel filtration in 50 mM NaOAc pH 5.0, 200 mM NaCl, last step of purification after refolding; monomer (17.5 kDa) and dimer (35 kDa) peaks

HdaB-dsA (donor strand complemented HdaB: HdaB residues 1-119, 14-residue linker, HdaA residues 1-10)
stoichiometry N: 2
